{"source": "paper PMC6864843", "about": "(2019)", "key": {"[1]": {"target": "Recombinant AAV1 particles (Adeno-Associated Virus serotype 1 capsid) (Adeno-associated virus 1) (UniProt Q9WBP8)", "assay": "SPR; BIAcore T200; AAV1 particles immobilised on a CM5 chip by amide coupling (in sodium acetate pH 4.5); AAVR flowed at different concentrations, 30 μL/min, 25 °C, 100 mM NaCl in 10 mM HEPES pH 7.4"}, "[2]": {"target": "Recombinant AAV2 particles (Adeno-Associated Virus serotype 2 capsid) (Adeno-associated virus 2)", "sequence (O56652 whole entry, chain 1 of 3)": "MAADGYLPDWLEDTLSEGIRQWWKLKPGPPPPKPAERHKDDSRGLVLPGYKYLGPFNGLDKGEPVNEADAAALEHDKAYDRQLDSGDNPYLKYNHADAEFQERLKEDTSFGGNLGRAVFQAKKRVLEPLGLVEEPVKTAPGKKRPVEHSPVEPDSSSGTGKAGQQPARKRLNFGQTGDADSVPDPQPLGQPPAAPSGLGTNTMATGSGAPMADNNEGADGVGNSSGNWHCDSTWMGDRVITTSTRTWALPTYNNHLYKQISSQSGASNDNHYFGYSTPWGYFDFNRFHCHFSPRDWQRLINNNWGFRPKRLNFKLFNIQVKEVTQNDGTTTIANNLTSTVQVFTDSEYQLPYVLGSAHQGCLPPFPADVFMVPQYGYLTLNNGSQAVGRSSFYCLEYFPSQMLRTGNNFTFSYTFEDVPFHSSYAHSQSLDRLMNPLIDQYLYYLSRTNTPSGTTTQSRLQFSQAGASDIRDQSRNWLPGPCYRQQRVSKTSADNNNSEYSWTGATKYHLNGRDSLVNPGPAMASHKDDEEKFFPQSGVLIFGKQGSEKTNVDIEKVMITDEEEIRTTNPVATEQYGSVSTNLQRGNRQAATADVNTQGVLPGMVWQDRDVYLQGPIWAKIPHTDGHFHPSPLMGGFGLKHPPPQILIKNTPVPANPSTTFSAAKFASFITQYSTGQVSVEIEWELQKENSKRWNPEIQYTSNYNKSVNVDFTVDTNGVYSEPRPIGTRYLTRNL", "sequence (P03135 139-735, tags left off, chain 2 of 3, further chain)": "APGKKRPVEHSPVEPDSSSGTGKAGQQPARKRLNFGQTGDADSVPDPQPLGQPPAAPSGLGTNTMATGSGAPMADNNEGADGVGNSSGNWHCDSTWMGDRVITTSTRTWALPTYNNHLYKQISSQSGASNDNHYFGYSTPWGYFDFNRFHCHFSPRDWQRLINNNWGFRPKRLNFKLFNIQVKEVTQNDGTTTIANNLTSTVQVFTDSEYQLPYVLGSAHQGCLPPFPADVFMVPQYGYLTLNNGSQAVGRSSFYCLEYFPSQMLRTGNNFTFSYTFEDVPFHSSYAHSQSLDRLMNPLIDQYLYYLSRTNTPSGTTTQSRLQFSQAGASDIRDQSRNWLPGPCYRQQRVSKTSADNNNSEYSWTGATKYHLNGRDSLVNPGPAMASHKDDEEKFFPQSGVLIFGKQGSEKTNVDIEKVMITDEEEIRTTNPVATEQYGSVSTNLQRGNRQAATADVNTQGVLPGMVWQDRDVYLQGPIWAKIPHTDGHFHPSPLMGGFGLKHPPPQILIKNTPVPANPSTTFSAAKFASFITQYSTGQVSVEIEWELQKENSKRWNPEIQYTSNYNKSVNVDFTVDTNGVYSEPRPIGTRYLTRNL", "sequence (P03135 203-735 limits assumed, chain 3 of 3, further chain)": "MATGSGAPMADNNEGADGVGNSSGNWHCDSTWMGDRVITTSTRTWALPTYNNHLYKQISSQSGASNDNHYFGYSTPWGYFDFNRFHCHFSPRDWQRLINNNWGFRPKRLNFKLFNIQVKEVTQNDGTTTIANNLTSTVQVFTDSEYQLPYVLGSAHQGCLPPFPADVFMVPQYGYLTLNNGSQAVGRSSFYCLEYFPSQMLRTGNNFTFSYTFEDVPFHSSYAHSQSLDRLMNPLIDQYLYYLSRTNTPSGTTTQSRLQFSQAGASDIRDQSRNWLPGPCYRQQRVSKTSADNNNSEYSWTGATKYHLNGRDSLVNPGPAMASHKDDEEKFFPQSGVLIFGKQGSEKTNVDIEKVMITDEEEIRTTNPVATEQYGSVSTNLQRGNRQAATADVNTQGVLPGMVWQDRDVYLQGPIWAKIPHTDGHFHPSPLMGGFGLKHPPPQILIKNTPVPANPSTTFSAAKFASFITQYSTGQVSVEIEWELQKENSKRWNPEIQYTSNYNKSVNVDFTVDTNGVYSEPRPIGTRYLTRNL", "assay": "ELISA; sandwich 'VIRELISA': 10 μg AAVR-His coated per well, AAV2 sample (1.0 × 10^8 v.g. in Table 1) 1 h at RT, blocked with BSA, AAVR-SBP-His probe 1 h in PBST, HRP-streptavidin, ABTS, read at 450 nm; probe concentration, SAV-HRP dilution and ABTS time varied in Table 1"}, "[3]": {"target": "T1, Recombinant AAV1 particles (Adeno-Associated Virus serotype 1 capsid) (Adeno-associated virus 1, UniProt Q9WBP8 1-736)", "T1 chain 1": "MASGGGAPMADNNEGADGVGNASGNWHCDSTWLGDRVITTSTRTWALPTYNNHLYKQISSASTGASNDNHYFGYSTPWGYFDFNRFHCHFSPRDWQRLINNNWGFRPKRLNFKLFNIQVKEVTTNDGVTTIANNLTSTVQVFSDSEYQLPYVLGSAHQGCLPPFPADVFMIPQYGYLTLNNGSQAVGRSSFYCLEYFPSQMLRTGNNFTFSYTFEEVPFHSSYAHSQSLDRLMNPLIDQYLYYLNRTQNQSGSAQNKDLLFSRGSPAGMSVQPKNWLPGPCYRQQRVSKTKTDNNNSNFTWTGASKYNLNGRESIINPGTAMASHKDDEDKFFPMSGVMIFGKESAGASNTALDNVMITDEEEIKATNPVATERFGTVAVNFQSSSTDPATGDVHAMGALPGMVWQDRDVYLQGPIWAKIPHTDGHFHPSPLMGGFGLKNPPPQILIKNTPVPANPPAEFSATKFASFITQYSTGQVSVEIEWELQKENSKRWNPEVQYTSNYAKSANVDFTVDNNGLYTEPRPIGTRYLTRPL", "T1 chain 2": "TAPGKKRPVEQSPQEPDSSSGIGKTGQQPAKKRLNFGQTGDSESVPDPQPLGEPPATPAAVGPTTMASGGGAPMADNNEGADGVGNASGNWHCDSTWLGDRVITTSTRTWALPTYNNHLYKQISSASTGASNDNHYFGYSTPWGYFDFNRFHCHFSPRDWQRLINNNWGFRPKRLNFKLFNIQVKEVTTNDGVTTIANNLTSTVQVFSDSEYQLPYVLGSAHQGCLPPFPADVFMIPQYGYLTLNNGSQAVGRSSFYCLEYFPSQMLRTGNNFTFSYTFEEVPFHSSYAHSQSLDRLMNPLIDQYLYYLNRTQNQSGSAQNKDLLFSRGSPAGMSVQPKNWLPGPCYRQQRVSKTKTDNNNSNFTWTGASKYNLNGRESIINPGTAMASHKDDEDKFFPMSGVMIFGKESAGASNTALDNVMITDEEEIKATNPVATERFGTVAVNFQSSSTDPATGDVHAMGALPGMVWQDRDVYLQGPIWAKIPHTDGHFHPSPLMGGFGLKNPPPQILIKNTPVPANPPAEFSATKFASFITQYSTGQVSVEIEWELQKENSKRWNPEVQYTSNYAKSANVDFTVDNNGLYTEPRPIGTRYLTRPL", "T1 chain 3": "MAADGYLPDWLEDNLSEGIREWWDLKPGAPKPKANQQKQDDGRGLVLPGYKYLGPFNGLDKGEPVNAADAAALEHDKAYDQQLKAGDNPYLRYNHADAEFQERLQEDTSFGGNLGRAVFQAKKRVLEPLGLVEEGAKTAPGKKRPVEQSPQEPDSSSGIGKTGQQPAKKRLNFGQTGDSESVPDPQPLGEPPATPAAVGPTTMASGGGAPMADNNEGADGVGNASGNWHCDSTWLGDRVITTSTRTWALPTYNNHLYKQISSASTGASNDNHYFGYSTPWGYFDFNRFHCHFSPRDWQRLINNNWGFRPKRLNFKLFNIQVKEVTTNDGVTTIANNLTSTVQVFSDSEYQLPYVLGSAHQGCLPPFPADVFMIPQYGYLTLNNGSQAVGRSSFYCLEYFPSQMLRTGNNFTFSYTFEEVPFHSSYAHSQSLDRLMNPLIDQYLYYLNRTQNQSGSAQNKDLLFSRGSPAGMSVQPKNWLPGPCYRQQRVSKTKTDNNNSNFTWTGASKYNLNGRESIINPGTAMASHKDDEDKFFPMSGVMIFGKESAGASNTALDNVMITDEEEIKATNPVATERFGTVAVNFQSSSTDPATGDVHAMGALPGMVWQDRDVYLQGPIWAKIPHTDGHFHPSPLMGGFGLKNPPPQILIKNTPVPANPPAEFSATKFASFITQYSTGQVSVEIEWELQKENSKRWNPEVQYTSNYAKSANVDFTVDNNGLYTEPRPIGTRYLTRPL", "assay": "SPR"}}, "data": [{"molecule": "Soluble recombinant AAVR (analyte of the BIAcore assay) (domain or fragment)", "values": [{"measurement": "Kd", "setting": "[1]", "value": 255, "unit": "nM"}]}, {"molecule": "AAVR-SBP-His (AAVR PKD domains 1–5 with C-terminal streptavidin binding peptide and 6× His-tag in tandem) (domain or fragment)", "values": [{"measurement": "absorbance at 450 nm, AAVR-SBP-His 50 μg/mL (absorbance (450 nm))", "setting": "[2]", "value": 0.662}, {"measurement": "absorbance at 450 nm, AAVR-SBP-His 100 μg/mL (absorbance (450 nm))", "setting": "[2]", "value": 0.861}, {"measurement": "absorbance at 450 nm, ABTS incubating time 10 min (absorbance (450 nm))", "setting": "[2]", "value": 0.32}, {"measurement": "absorbance at 450 nm, ABTS incubating time 15 min (absorbance (450 nm))", "setting": "[2]", "value": 0.663}, {"measurement": "absorbance at 450 nm, ABTS incubating time 20 min (absorbance (450 nm))", "setting": "[2]", "value": 0.819}, {"measurement": "absorbance at 450 nm, ABTS incubating time 30 min (absorbance (450 nm))", "setting": "[2]", "value": 1.33}, {"measurement": "absorbance at 450 nm, SAV-HRP dilution 1/1000 (absorbance (450 nm))", "setting": "[2]", "value": 0.872}, {"measurement": "absorbance at 450 nm, SAV-HRP dilution 1/2000 (absorbance (450 nm))", "setting": "[2]", "value": 0.798}, {"measurement": "absorbance at 450 nm, SAV-HRP dilution 1/5000 (absorbance (450 nm))", "setting": "[2]", "value": 0.662}]}, {"molecule": "Soluble recombinant AAVR (analyte of the BIAcore assay) (domain or fragment) SAGESVQITLPKNEVQLNAYVLQEPPKGETYTYDWQLITHPRDYSGEMEGKHSQILKLSKLTPGLYEFKVIVEGQNAHGEGYVNVTVKPEPRKNRPPIAIVSPQFQEISLPTTSTVIDGSQSTDDDKIVQYHWEELKGPLREEKISEDTAILKLSKLVPGNYTFSLTVVDSDGATNSTTANLTVNKAVDYPPVANAGPNQVITLPQNSITLFGNQSTDDHGITSYEWSLSPSSKGKVVEMQGVRTPTLQLSAMQEGDYTYQLTVTDTIGQQATAQVTVIVQPENNKPPQADAGPDKELTLPVDSTTLDGSKSSDDQKIISYLWEKTQGPDGVQLENANSSVATVTGLQVGTYVFTLTVKDERNLQSQSSVNVIVKEEINKPPIAKITGNVVITLPTSTAELDGSKSSDDKGIVSYLWTRDEGSPAAGEVLNHSDHHPILFLSNLVEGTYTFHLKVTDAKGESDTDRTTVEVKPD", "values": [{"measurement": "koff", "setting": "[3]", "value": 0.00184, "unit": "s⁻¹"}]}]}
